Results taken from patent publication US20190328898A1 (AGENSYS, published 2019).
Each block holds one binder with its values, some of them ahead of it.

Assays:
161P2F10B protein [1] = target: T1, 161P2F10B protein (human, UniProt O14638 1-875); assay: cell-based or functional assay
T1 sequence: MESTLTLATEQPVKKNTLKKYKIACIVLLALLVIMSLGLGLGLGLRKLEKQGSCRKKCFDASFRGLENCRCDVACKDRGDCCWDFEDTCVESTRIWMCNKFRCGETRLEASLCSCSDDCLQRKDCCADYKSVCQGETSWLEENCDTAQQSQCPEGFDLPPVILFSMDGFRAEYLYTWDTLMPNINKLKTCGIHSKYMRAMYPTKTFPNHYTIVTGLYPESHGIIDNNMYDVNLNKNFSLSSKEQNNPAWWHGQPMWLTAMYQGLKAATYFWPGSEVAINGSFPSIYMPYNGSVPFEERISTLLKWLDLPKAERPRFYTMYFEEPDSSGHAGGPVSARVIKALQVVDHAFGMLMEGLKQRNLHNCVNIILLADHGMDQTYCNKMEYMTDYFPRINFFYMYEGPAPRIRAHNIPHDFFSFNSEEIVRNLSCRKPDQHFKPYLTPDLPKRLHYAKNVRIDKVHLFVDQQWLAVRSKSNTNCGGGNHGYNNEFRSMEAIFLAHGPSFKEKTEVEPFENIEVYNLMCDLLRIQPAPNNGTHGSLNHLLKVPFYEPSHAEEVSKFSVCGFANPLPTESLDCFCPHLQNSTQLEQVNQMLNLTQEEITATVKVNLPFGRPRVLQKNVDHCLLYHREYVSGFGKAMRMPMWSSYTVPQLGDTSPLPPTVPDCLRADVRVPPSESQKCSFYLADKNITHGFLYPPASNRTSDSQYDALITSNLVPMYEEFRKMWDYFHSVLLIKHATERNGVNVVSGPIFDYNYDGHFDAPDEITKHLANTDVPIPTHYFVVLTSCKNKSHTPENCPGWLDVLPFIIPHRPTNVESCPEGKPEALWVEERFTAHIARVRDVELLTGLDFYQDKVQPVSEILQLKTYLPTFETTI

161P2F10B protein [2] = target: T1, 161P2F10B protein; assay: FACS saturation binding on Ku812 cells, one site fit of MFI
Protocol: FIG. 6. Cell Binding and Affinity of H16-7.8 and H16-7.8mcMMAF. H16-7.8 and H16-7.8mcMMAF were tested for the binding affinity to 161P2F10B endogenously expressed on Ku812 cells. Briefly, eleven (11) dilutions of H16-7.8 or H16-7.8mcMMAF were incubated with Ku812 cells (50,000 cells per well) overnight at 4° C. at a final concentration of 160 nM to 0.0001 nM. At the end of the incubation, cells were washed and incubated with anti-hIgG-PE detection antibody for 45 min at 4° C. After washing the unbound detection antibodies, the cells were analyzed by FACS. Mean Florescence Intensity (MFI) values are obtained (See, Table IV). MFI values were entered into Graphpad Prisim software and analyzed using the one site binding (hyperbola) equation of Y=Bmax*X/(Kd+X) to generate H16-7.8 or H16-7.8mcMMAF saturation curves shown in FIG. 6. […]
H16-7.8 and H16-7.8mcMMAF were tested for the binding affinity to 161P2F10B endogenously expressed on Ku812 cells. […] After washing the unbound detection antibodies, the cells are analyzed by FACS. […] MFI values were entered into Graphpad Prisim software and analyzed using the one site binding (hyperbola) equation of Y=Bmax*X/(Kd+X) to generate H16-7.8 or H16-7.8mcMMAF saturation curves shown in FIG. 6. […]

161P2F10B protein [3] = target: T1, 161P2F10B protein; assay: FACS saturation binding on KU812 cells, twelve dilutions, one site fit, n=4
Protocol: H16-7.8 and H16-7.8mcMMAF were tested for their binding affinity to 161P2F10B expressed on KU812 cells (human chronic myelogenous leukemia cells, ATCC). Briefly, twelve (12) dilutions of H16-7.8 or H16-7.8mcMMAF were incubated with KU812 cells (50,000 cells per well) overnight at 4° C. at a final concentration of 160 nM to 0.004 nM. At the end of the incubation, cells are washed and incubated with anti-hIgG-PE detection antibody for 45 min at 4° C. After washing the unbound detection antibodies, the cells are analyzed by FACS.
MFI values were entered into Graphpad Prisim software and analyzed using the one site binding (hyperbola) equation of Y=Bmax*X/(Kd+X) to generate H16-7.8 and H16-7.8mcMMAF saturation curves. Bmax is the MFI value at maximal binding of H16-7.8 or H16-7.8mcMMAF to KU812; Kd is H16-7.8 or H16-7.8mcMMAF binding affinity which are the concentration of H16-7.8 or H16-7.8mcMMAF required to reach halfmaximal binding. […] (n=4).

IC 50, inhibition of proliferation of KU812 cells (Alamar blue, 6 days), Lot (1) (161P2F10B protein [1]): 200 pM
IC 50, inhibition of proliferation of KU812 cells (Alamar blue, 6 days), Lot (2) (161P2F10B protein [1]): 100 pM
Kd (161P2F10B protein [2]): 190 pM
Kd (161P2F10B protein [3]): 250 pM
B1: H16-7.8mcMMAF (antibody, V domains shown)
VH: QVQLQESGPGLVKPSQTLSLTCTVSGGSISSGGYYWSWIRQHPGKGLEWIGIIYYSGSTYYNPSLKSRVTISVDTSKNQFSLKLNSVTAADTAVFYCARVAIVTTIPGGMDVWGQGTTVTVSS
VL: EIVLTQSPDFQSVTPKEKVTITCRASQSIGISLHWYQQKPDQSPKLLIKYASQSFSGVPSRFSGSGSGTDFTLTINSLEAEDAATYYCHQSRSFPWTFGQGTKVEIKR
modifications: mcMMAF on the cysteine of peptide S208FNRGEC214 in part of the chains (0 or 1 drug per L chain); mcMMAF (maleimidocaproyl-monomethyl auristatin F) on cysteine thiols after partial reduction; predominantly 2 drugs on the hinge peptide C225-K250; 0 to 5 drugs per H chain observed; overall DAR 4.0
notes: a mixture of drug loadings, predominant species 4 drugs; also called H16-7.8mcMMAF ADC; ADC H16-7.8mcMMAF
Specific cytotoxicity activity on KU812 cells, IC50 (Alamar Blue, 6 days) (161P2F10B protein [1]): 150 pM

Kd (161P2F10B protein [2]): 60 pM
Kd (161P2F10B protein [3]): 80 pM
B2: 161P2F10B MAb H16-7.8 (antibody, V domains shown)
VH: B1 VH
VL: B1 VL
notes: Fully human IgG2 kappa from XenoMouse; also called native H16-7.8; recombinant H16-7.8
